# The supplement of paper PMC5998384
# What was measured:
# HeLa Kyoto [1] = assay: thermal stability score vs G1/S (z-score of summed log2 fold changes over temperatures); higher = more thermally stable than in G1/S
# HeLa Kyoto [2] = assay: solubility change mitosis vs G1/S (difference of NP-40 vs SDS log2 ratios) (log2 ratio difference); higher = more soluble in mitosis
# HeLa Kyoto [3] = assay: melting temperature (median over replicates), in situ; higher = more thermally stable
# HeLa Kyoto [4] = assay: solubility in G1/S (NP-40 vs SDS abundance) (log2 ratio); higher = more soluble; conditions: cell cycle stage: G1/S
# [5] = cell cycle stage: early G1 (4.5 h after nocodazole release)
# 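For melting temperature (median over replicates), in situ in this document: HeLa Kyoto cells synchronized by double thymidine or nocodazole block, proteins quantified by TMT10plex mass spectrometry, three independent biological replicates.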
# 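For solubility change mitosis vs G1/S (difference of NP-40 vs SDS log2 ratios) in this document: synchronized HeLa Kyoto cells (double thymidine block for G1/S, nocodazole release for mitosis), protein amounts in NP-40 versus SDS lysates quantified by mass spectrometry, three biological replicates.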
# 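For solubility in G1/S (NP-40 vs SDS abundance) in this document: HeLa Kyoto cells arrested at G1/S by double thymidine block, proteins quantified by TMT10plex mass spectrometry in mild NP-40 versus SDS extracts, three biological replicates.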
# 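For thermal stability score vs G1/S (z-score of summed log2 fold changes over temperatures) in this document: synchronized HeLa Kyoto cells, proteins quantified by TMT10plex mass spectrometry, three biological replicates, mitosis taken 0.5 h after nocodazole release, G1/S directly after double thymidine block.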
Substance,thermal stability score (HeLa Kyoto [1]; [5]),thermal stability score (HeLa Kyoto [1]; cell cycle stage: mitosis),solubility change mitosis (log2) (HeLa Kyoto [2]),melting temperature (HeLa Kyoto [3]; cell cycle stage: G1/S),melting temperature (HeLa Kyoto [3]; cell cycle stage: mitosis),solubility in G1/S (log2) (HeLa Kyoto [4])
MFQLPVNNLGSLRKARKTVKKILSDIGLEYCKEHIEDFKQFEPNDFYLKNTTWEDVGLWDPSLTKNQDYRTKPFCCSACPFSSKFFSAYKSHFRNVHSEDFENRILLNCPYCTFNADKKTLETHIKIFHAPNASAPSSSLSTFKDKNKNDGLKPKQADSVEQAVYYCKKCTYRDPLYEIVRKHIYREHFQHVAAPYIAKAGEKSLNGAVPLGSNAREESSIHCKRCLFMPKSYEALVQHVIEDHERIGYQVTAMIGHTNVVVPRSKPLMLIAPKPQDKKSMGLPPRIGSLASGNVRSLPSQQMVNRLSIPKPNLNSTGVNMMSSVHLQQNNYGVKSVGQGYSVGQSMRLGLGGNAPVSIPQQSQSVKQLLPSGNGRSYGLGSEQRSQAPARYSLQSANASSLSSGQLKSPSLSQSQASRVLGQSSSKPAAAATGPPPGNTSSTQKWKICTICNELFPENVYSVHFEKEHKAEKVPAVANYIMKIHNFTSKCLYCNRYLPTDTLLNHMLIHGLSCPYCRSTFNDVEKMAAHMRMVHIDEEMGPKTDSTLSFDLTLQQGSHTNIHLLVTTYNLRDAPAESVAYHAQNNPPVPPKPQPKVQEKADIPVKSSPQAAVPYKKDVGKTLCPLCFSILKGPISDALAHHLRERHQVIQTVHPVEKKLTYKCIHCLGVYTSNMTASTITLHLVHCRGVGKTQNGQDKTNAPSRLNQSPSLAPVKRTYEQMEFPLLKKRKLDDDSDSPSFFEEKPEEPVVLALDPKGHEDDSYEARKSFLTKYFNKQPYPTRREIEKLAASLWLWKSDIASHFSNKRKKCVRDCEKYKPGVLLGFNMKELNKVKHEMDFDAEWLFENHDEKDSRVNASKTADKKLNLGKEDDSSSDSFENLEEESNESGSPFDPVFEVEPKISNDNPEEHVLKVIPEDASESEEKLDQKEDGSKYETIHLTEEPTKLMHNASDSEVDQDDVVEWKDGASPSESGPGSQQVSDFEDNTCEMKPGTWSDESSQSEDARSSKPAAKKKATMQGDREQLKWKNSSYGKVEGFWSKDQSQWKNASENDERLSNPQIEWQNSTIDSEDGEQFDNMTDGVAEPMHGSLAGVKLSSQQA [ADNP],1.91,4.53,0.303,46.7 °C,49.2 °C,-0.566
MFRKARRVNVRKRNDSEEEERERDEEQEPPPLLPPPGTGEEAGPGGGDRAPGGESLLGPGPSPPSALTPGLGAEAGGGFPGGAEPGNGLKPRKRPRENKEVPRASLLSFQDEEEENEEVFKVKKSSYSKKIVKLLKKEYKEDLEKSKIKTELNSSAESEQPLDKTGHVKDTNQEDGVIISEHGEDEMDMESEKEEEKPKTGGAFSNALSSLNVLRPGEIPDAAFIHAARKKRQMARELGDFTPHDNEPGKGRLVREDENDASDDEDDDEKRRIVFSVKEKSQRQKIAEEIGIEGSDDDALVTGEQDEELSRWEQEQIRKGINIPQVQASQPAEVNMYYQNTYQTMPYGSSYGIPYSYTAYGSSDAKSQKTDNTVPFKTPSNEMTPVTIDLVKKQLKDRLDSMKELHKTNRQQHEKHLQSRVDSTRAIERLEGSSGGIGERYKFLQEMRGYVQDLLECFSEKVPLINELESAIHQLYKQRASRLVQRRQDDIKDESSEFSSHSNKALMAPNLDSFGRDRALYQEHAKRRIAEREARRTRRRQAREQTGKMADHLEGLSSDDEETSTDITNFNLEKDRISKESGKVFEDVLESFYSIDCIKSQFEAWRSKYYTSYKDAYIGLCLPKLFNPLIRLQLLTWTPLEAKCRDFENMLWFESLLFYGCEEREQEKDDVDVALLPTIVEKVILPKLTVIAENMWDPFSTTQTSRMVGITLKLINGYPSVVNAENKNTQVYLKALLLRMRRTLDDDVFMPLYPKNVLENKNSGPYLFFQRQFWSSVKLLGNFLQWYGIFSNKTLQELSIDGLLNRYILMAFQNSEYGDDSIKKAQNVINCFPKQWFMNLKGERTISQLENFCRYLVHLADTIYRNSIGCSDVEKRNARENIKQIVKLLASVRALDHAMSVASDHNVKEFKSLIEGK [PAXBP1],0.626,1.5,0.153,48.6 °C,49 °C,-0.54
MFRRPVLQVLRQFVRHESETTTSLVLERSLNRVHLLGRVGQDPVLRQVEGKNPVTIFSLATNEMWRSGDSEVYQLGDVSQKTTWHRISVFRPGLRDVAYQYVKKGSRIYLEGKIDYGEYMDKNNVRRQATTIIADNIIFLSDQTKEKE [SSBP1],0.62,-1.51,0.0149,59.5 °C,59.6 °C,0.0755
MFSD10,-2.75,-4.59,-0.219,57.2 °C,57.1 °C,-0.0104
MFSFNMFDHPIPRVFQNRFSTQYRCFSVSMLAGPNDRSDVEKGGKIIMPPSALDQLSRLNITYPMLFKLTNKNSDRMTHCGVLEFVADEGICYLPHWMMQNLLLEEGGLVQVESVNLQVATYSKFQPQSPDFLDITNPKAVLENALRNFACLTTGDVIAINYNEKIYELRVMETKPDKAVSIIECDMNVDFDAPLGYKEPERQVQHEESTEGEADHSGYAGELGFRAFSGSGNRLDGKKKGVEPSPSPIKPGDIKRGIPNYEFKLGKITFIRNSRPLVKKVEEDEAGGRFVAFSGEGQSLRKKGRKP [UFD1L],0.171,-0.639,-0.123,54.2 °C,54.3 °C,0.0333
